Laboratory results: patent publication US20260274955A1 (JANUX THERAPEUTICS, published 2026)

B1: Phage-505 (peptide)
peptide: YCDGHSPEYMLKCL
notes: on phage, pIII fusion
B2: Phage-526 (peptide)
peptide: YCDGHAKEYIQKCL
notes: on phage, pIII fusion
B3: Phage-532 (peptide)
peptide: YCEGHSEEFMSKCL
notes: on phage, pIII fusion
B4: Phage-559 (peptide)
peptide: YCAGHLEEYMWKCL
notes: on phage, pIII fusion
B5: Phage-549 (peptide)
peptide: YCDGHNGVYWWKCI
notes: on phage, pIII fusion
B6: Phage-527 (peptide)
peptide: YCEGHLPQYMVKCL
notes: on phage, pIII fusion
B7: Phage-523 (peptide)
peptide: YCEGHSWEHMEKCL
notes: on phage, pIII fusion
B8: Phage-531 (peptide)
peptide: YCDGHSWQYMWKCI
notes: on phage, pIII fusion
B9: Phage-555 (peptide)
peptide: YCDGHLPEYLAKCL
notes: on phage, pIII fusion
B10: Phage-506 (peptide)
peptide: YCAGHSPQYMEKCL
notes: on phage, pIII fusion
B11: Phage-503 (peptide)
peptide: YCDGHLLEYKAKCL
notes: on phage, pIII fusion
B12: Phage-557 (peptide)
peptide: YCAGHLPVYMDKCL
notes: on phage, pIII fusion
B13: Phage-524 (peptide)
peptide: YCAGHSSEYIPKCL
notes: on phage, pIII fusion
B14: Phage-550 (peptide)
peptide: YCDGHAPEYLTKCL
notes: on phage, pIII fusion; cell for position 6 is missing in the printed row
B15: Phage-551 (peptide)
peptide: YCEGHSIQYMTKCL
notes: on phage, pIII fusion
B16: Phage-521 (peptide)
peptide: YCEGHSVEYIGKCL
notes: on phage, pIII fusion
B17: Phage-502 (peptide)
peptide: YCDGHELKYMLKCL
notes: on phage, pIII fusion
B18: Phage-556 (peptide)
peptide: YCDGHLAVYMAKCL
notes: on phage, pIII fusion
B19: Phage-528 (peptide)
peptide: YCQGHADEYMAKCL
notes: on phage, pIII fusion
B20: Phage-554 (peptide)
peptide: YCDGHAWQYMWKCL
notes: on phage, pIII fusion
B21: Phage-496 (peptide)
peptide: YCAGHLPEYMGKCL
notes: on phage, pIII fusion
B22: Phage-525 (peptide)
peptide: YCDGHLPQYLQKCT
notes: on phage, pIII fusion
B23: Phage-548 (peptide)
peptide: YCEGHLGQYMEKCL
notes: on phage, pIII fusion
B24: Phage-530 (peptide)
peptide: YCEGHLGIYMTKCL
notes: on phage, pIII fusion
B25: Phage-529 (peptide)
peptide: YCDGHAEEYLLKCL
notes: on phage, pIII fusion
B26: Phage-497 (peptide)
peptide: YCAGHLAIYMSKCL
notes: on phage, pIII fusion
B27: Phage-520 (peptide)
peptide: YCEGHADEYMWKCL
notes: on phage, pIII fusion
B28: Phage-499 (peptide)
peptide: YCEGHVTEYMQKCL
notes: on phage, pIII fusion
B29: Phage-552 (peptide)
peptide: YCDGHLQIYMGKCL
notes: on phage, pIII fusion
B30: Phage-498 (peptide)
peptide: YCDGHLSEYMSKCL
notes: on phage, pIII fusion
B31: Phage-547 (peptide)
peptide: YCEGHAPVYMFKCL
notes: on phage, pIII fusion
B32: Phage-558 (peptide)
peptide: YCEGHSAMYIWKCL
notes: on phage, pIII fusion
B33: Phage-553 (peptide)
peptide: YCDGHSVEYLDKCL
notes: on phage, pIII fusion

target: T1, anti-CD28 Fab (SEQ ID NOs: 202, 203); test: phage ELISA on captured Fab;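 note: ELISA with clonal phage supernatants added to wells preincubated with CD28 antigen or with blocking buffer only, bound phage detected by HRP-conjugated anti-M13 antibody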
T1 construct: biotinylated and captured on neutravidin coated plates in the phage ELISA
T1 sequence (VH, as listed by the source, chain 1 of 2): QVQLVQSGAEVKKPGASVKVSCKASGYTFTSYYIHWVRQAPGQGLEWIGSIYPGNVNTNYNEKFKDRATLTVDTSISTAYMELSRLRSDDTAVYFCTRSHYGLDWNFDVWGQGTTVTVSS
T1 sequence (VL, as listed by the source, chain 2 of 2): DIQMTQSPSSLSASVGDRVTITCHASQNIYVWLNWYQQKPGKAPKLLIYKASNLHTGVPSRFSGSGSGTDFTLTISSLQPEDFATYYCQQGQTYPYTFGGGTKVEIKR
Procedure: (§1) Clonal phage were harvested as crude supernatants and screened via standard ELISAs. […] Prior to the addition of clonal phage, wells were incubated with blocking buffer and CD28 antigen or blocking buffer alone. Without washing or aspirating, clonal phage supernatants were then added to the wells and incubated for a short time. Wells were then washed followed by detection of bound phage using a horse radish conjugated anti-M13 antibody.

Binder | Anti-CD28 Fab (SEQ ID NOs: 202, 203) signal
B1 | 1.61
B2 | 1.58
B3 | 1.57
B4 | 1.51
B5 | 1.53
B6 | 1.58
B7 | 1.58
B8 | 1.57
B9 | 1.52
B10 | 1.61
B11 | 1.62
B12 | 1.52
B13 | 1.58
B14 | 1.53
B15 | 1.53
B16 | 1.59
B17 | 1.62

Binder | Anti-CD28 Fab (SEQ ID NOs: 202, 203) signal
B18 | 1.52
B19 | 1.58
B20 | 1.53
B21 | 1.63
B22 | 1.58
B23 | 1.54
B24 | 1.57
B25 | 1.57
B26 | 1.63
B27 | 1.59
B28 | 1.62
B29 | 1.53
B30 | 1.62
B31 | 1.54
B32 | 1.52
B33 | 1.53

target: T1, anti-CD28 Fab (SEQ ID NOs: 202, 203); test: phage ELISA on captured Fab, wells pre-incubated with CD28 antigen (competitor);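 note: clonal phage ELISA with wells pretreated with CD28 plus blocking buffer before phage addition, bound phage detected by HRP-linked anti-M13 antibody, reference wells got blocking buffer only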
Procedure: as §1

Binder | Anti-CD28 Fab signal in the presence of CD28
B1 | 0.07
B2 | 0.06
B3 | 0.08
B4 | 0.08
B5 | 0.07
B6 | 0.07
B7 | 0.06
B8 | 0.09
B9 | 0.06
B10 | 0.06
B11 | 0.07
B12 | 0.08
B13 | 0.09
B14 | 0.06
B15 | 0.13
B16 | 0.07
B17 | 0.08

Binder | Anti-CD28 Fab signal in the presence of CD28
B18 | 0.08
B19 | 0.08
B20 | 0.07
B21 | 0.07
B22 | 0.07
B23 | 0.08
B24 | 0.08
B25 | 0.05
B26 | 0.08
B27 | 0.06
B28 | 0.08
B29 | 0.06
B30 | 0.06
B31 | 0.08
B32 | 0.1
B33 | 0.08
